# Laboratory results reported in the DeepSol protein solubility set.
# Assay: soluble on expression in E. coli; label from the status in PepcDB or PDB records
row,Sequence,soluble on expression in E. coli
1,MLEEDKIKGMFNPKIWDKTFQDGLKKEIEDSQPYNWGTIHELVNDDLLRAVRKEIETEIHFTKKETDIYRVNQSGDLANLSGLDWDDLSRLPNLFKLRQILYSKQYRDFFGYVTKAGKLSGSKTDMSINTYTKGCHLLTHDDVIGSRRISFILYLPDPDRKWKSHYGGGLRLFPSILPNVPHSDPSAKLVPQFNQIAFFKVLPGFSFHDVEEVKVDKHRLSIQGWYHIPQVGEEGYIPGEEEAWVRNNTSTLAQIESNVLEDFEFPKDERNILSFHEVKHFEKMLKGDAGAKTDNTPKESMTSVISDSVKLSEAEFTYLSQYISPEHLSSKGIEKLQKQFVENSSLQIESFLNDDKSELLKKVIKQKELEQECPYHSKDVKAPWKTAIPPHKARYLYIDGKEYRNFQTEADILEALNNNDLPNFQFTKDAIKIISDASGNSRENNFDAELALIDLAVFHKSTIFKKYLALLTSLCPVSEQILIRRFRPGMDFTLATKCRFNELLKSNPDIIDAVLEGTLCLTPSAGWESGELGGYELYMMDDDEDNKQYLKEDVEDASVYRADDSGDSVLINDPPAWNTFNLVLRDESVLEFVKYVSWSAKSSRWDVKMKWDVKSCDEDGQEDEALEHHHHHH,soluble
2,MAATATEKLPQLKSAVDGLTEMSENEKSGFINLVSRYLSGEAQHIEWSKIQTPTDEIVVPYDKMANVSEDASETKYLLDKLVVLKLNGGLGTTMGCTGPKSVIEVRDGLTFLDLIVIQIENLNNKYNCKVPLVLMNSFNTHDDTQKIVEKYTKSNVDIHTFNQSKYPRVVADEFVPWPSKGKTDKDGWYPPGHGDVFPSLMNSGKLDAFLSQGKEYVFIANSDNLGAIVDLKILKHLIQNKNEYCMEVTPKTLADVKGGTLISYEGKVQLLEIAQVPDEHVNEFKSIEKFKIFNTNNLWVNLKAIKKLVEADALKMEIIPNPKEVDGVKVLQLETAAGAAIRFFDNAIGVNVPRSRFLPVKATSDLLLVQSDLYTLVDGFVTRNKARTNPTNPAIELGPEFKKVASFLSRFKSIPSIVELDSLKVSGDVWFGSGVVLKGKVTVKANAGTKLEIPDNAVLENKDINGPEDL,soluble
3,MGSDKIHHHHHHMRVKIYTLADDYAGYNSPFWAQHGVSFLVEVEGKKILFDTASYAEPILFNMKLLNLNPRDIDMIVLSHNHFDHTGGLLGILREINRKVPIFAHPEIFKVSFALEPEFMYAGTPRLKEEAEKLGGIWILTRDPITLMPGVFTLGEIKEEEKVEFEKGSTGLFKIEDGRVIEDKVEDEIGLAINTRKGLVVLAGCAHPGIVSMVKKAIKLSGNDKVYAVLGGFHLINAEDSRIEKTVEAFKELEVKKVYAGHCTGLKAESRFAQELGDRFEKLHSGKIIEIS,not soluble
4,MAHHHHHHMSSYDAMSAVSSNGAVMPEINLHPRLMTHRPESDSYTGSARHSSRSTRAVPTNAELAYAGVTAQDGVVQQLSSRSEERGSLAGPREVSAQSNSGHRALRAITACGSIDEPLQLSEPHQGRAIRDTPREQKPQQHQSQPTRSISHGVVARNAAGAGSSREPIRPGRSSCSSTPRIPSKHNDPYAHVTSVVQEYRQSRINALEAQYRVAHTHSNTSVSQGYDTRQSQSASPRSLEARRNASAHSRASARPRDGSWRMSSVSSRTRQNSPLPRAVEEEYLRGGVPRAALDAPHIRYAEALYNMYNSSSSSARRLACMSSMSSNMTTEYVPDVAKRIPDRFKYVPPTEEERRLHREATLRALEEWRRRQCARENAHCKGSEDMAAGGAAVELRNRNPPKNQSGTRSQQPQQAGHEEAAAWALQKGFDNTSDSFSGQARDSFTPSKKCSARKAKKIRSAAEQRDDYPTNEGAGEWERPQSSVGKRSGTLISRRQNGAGLRASSRKGRKSPTESARVEDGMKLNSFREKLLFDIAPPTVSIA,not soluble
5,MVKVIASSVRKGNVLDVDGKLYVVLTAQNFHPGKGTPVTQVDMRRIVDGTKVSERWRTTEQVERAFVEDLNFQFLYEDGEGFHFMNPENYDQVVVDVETMGDQKAYLQEGMTCVLSIHEGNPLAVELPRHVTLEIVETEPVVKGQTASSSYKPAILSNGIRTMVPPHIDAGIRVVIATEDNSYVERAKN,not soluble
6,MWPPCFWWRTSPACAWGCGWPSRGRGTGFWRRPPRRRPWPLLREAELVVLDWMLPDEPGVRLLDRMRQGPYESLPVLMLTARAGVRDRVEGLSRGADDYLVKPFAVEELLARLEALLRRAGKRKVLRRGPLLLDLERMEARLEGNPLPLTRREFALLAYLAERPGRVCTREELLEAVWGPDYLGTPRTVDQHVLQLREKLGEDPKAPRFLETVRGVGYRFREEA,soluble
7,ADPLAATTVADLPVYNGEDVWQRVAQRCRLVDGQGVNERIARQRDWLLNNRGFLTGASKRATPYLHFIVERLDERNMPLELALLPMIESSYNPLANSPAAAAGLWQFIPSTGRQFNLNQSATYDARRDVVASSKAAMDYLTRLHDQFNNDWLLALAAYNAGEGTVARAIDANRRRGMPVDYWHLNLPRETQDYVPRLLALSLVVRNPGAYGVQLTPVANMPYFDVVELNHTVDLTQLAATTGVDEAQLLRLNPAFLRKKTPDGPGRLLIPKTHTQVLTAGIERITGESPTTAVIPASPGKRVIEREPSSQVAERAPTPEPLQAAGREQTAGLMQVLEREPAPESVQPVRREPQPKVVQVARQEPLPGPAQPVQAAEQVTVSDPIQPARQASSQATNERSLLDRRIQKRLYIDDRSSPRKRDEIAYRDEPRELPNGPRVVVYASDPRQ,not soluble
8,MPKASQETKGLGSYDPKSATEKKFVITHRIKNISTLNIGNTYTSDVEDHFGFLWHLSYIYDGRFLRTTLNIDVNGRSALWSVGMKVRHMFVTKNGADHFHNSTDHVFSQEHNYGLTAITFFEDIKNKIFDDDMVYVDVEVTITKTSGFDRKKLRNFDTPENDWHVVLVAGGQKFYARTVVICNPNTDICELDVARGTEIVLENEDPLDLQIFLEALHGEDVISDTTLEIILLLAIKYRAIEIFSKCEKWLLEGSKMSPRKQLQMAIRCSFWELEQKCLSELKTKQDIQAVLPANLMSLDPNMVLTLFEKLLTVT,soluble
9,ASGTTLNWTGRMLGNGTLVKEGAGTLALSGFNAHGGTVVNAGTVQISNDYGLGNGALTLNNSRLASTADIYAEAAATVNGNGTFDTANGTTLQWMGDIGGAGALVKTGAGTLLLGGDSLY,not soluble
10,MNEVLRQEKKYLISLEDYYLLSKKFSQVMTLDSHSSDDGYTIRSLYFDSLEDVDWQEKEDGVEIRRKIRLRNYGSQSNFAKLEMKQKQGANQKKRSLKLSKTDAQALINGNNSVLLNYPDTFAAECYSRITTQLYQPKTVIEYQRKAFVAKENNIRITFDHHIIGTEASYDIFSEDLNQNYLLDPYLVILEVKYNGFLLSYIKELLDSVDRSELSASKYCLGRAVSKHYRFLEHHHHHH,not soluble
11,DIQMSQSSSSFSVSLGDRVTITCKASEDIYSRLAWYQQKPGNAPRLLISGATSLETWVPSRFSGSDSGKDYTLSITSLQTEDVATYFCQQYWSPPPTFGGGTKLEIKRADAAPTVSIFPPSSEQLTSGGASVVCFLNNFYPKDINVKWKIDGSERQNGVLNSWTDQDSKDSTYSMSSTLTLTKDEYERHNSYTCEATHKTSTSPIVKSFNRNEC,soluble
12,MLILMDPEETGKAPEIRALKSRAVNRVDSDLGRMEAVKRLKGVEDRRVGSEVFDELTLKTLYKLANSGYLAVLNGAVSTGKEANVFKGITDTDDFVAVKIYRVATSDFKKMQYYIQGDPRFKVRTTNRRQLVQAWVNKEFRNLKRALEAGVRVPEPVTARDNVLIMEFIGKDGVPAPTMRDAPPEDPEEALETIIEYMHRLYKGARLVHGDLSFFNILNHCGEPVIIDVSQAMVLDHPLAGELLERDIENIIRDFRRIGVSVSADYIRERITGK,soluble
13,PYNKNGFKVGMKLEGVDPEHQSVYCVLTVAEVCGYRIKLHFDGYSDCYDFWVNADALDIHPVGWCEKTGHKLHPPKGYKEEEFNWQTYLKTCKAQAAPKSLFENQNITVIPSGF,soluble
14,WGYQTDGRFQNFDEINTYPIQNGDNGNSKELPGDYILKDVNGDGVVNDLDKTPLFWSGSPLIHYGFNVEASWKNFDFYALFQGSALYTVQFDEVYAKMLCFKGGNTPEYFYDRWHLSDPYDANSEWIPGEWPAIRLEQDMGSFYTRDSQIWRKNASYLRLKTIEIGYTFSPRLMHKLGIGSLRIYANGNNLFTVCDPFVKAFDPEKIEGDYSAGLNYPLNKSFNFGLTLNF,not soluble
15,MSNSTMEATQMKVKLAVDEMIDDLDKTYLRDMQKSMFQCSARCCDNKKTTRDAVENCVESCNDGMKKAQGYLEKELGGLQDQLSRCAMTCYDKLVQQFGPDVNKYSESQKLSFNEKLDSCVSVCADDHIKLIPAIKKRFAKNT,not soluble
